{"source": "paper PMC8213806", "about": "(Nature Communications, 2021)", "biological_target": "T1, TcdB1 holotoxin (VPI10463 strain), recombinant full-length, from Bacillus megaterium (Clostridioides difficile (VPI10463 …, UniProt P18177 1-2366))", "T1 construct": "source: Bacillus megaterium, purified as described previously", "test": "BLI", "details": "both partners purified", "data": [{"binder": "CSPG4^mini (human CSPG4 residues 30–764: two laminin G motifs and first two CSPG repeats) (domain or fragment, source: FreeStyle HEK 293 cells, secreted, purified (Ni-NTA, Superdex-200)) ASFFGENHLEVPVATALTDIDLQLQFSTSQPEALLLLAAGPADHLLLQLYSGRLQVRLVLGQEELRLQTPAETLLSDSIPHTVVLTVVEGWATLSVDGFLNASSAVPGAPLEVPYGLFVGGTGTLGLPYLRGTSRPLRGCLHAATLNGRSLLRPLTPDVHEGCAEEFSASDDVALGFSGPHSLAAFPAWGTQDEGTLEFTLTTQSRQAPLAFQAGGRRGDFIYVDIFEGHLRAVVEKGQGTVLLHNSVPVADGQPHEVSVHINAHRLEISVDQYPTHTSNRGVLSYLEPRGSLLLGGLDAEASRHLQEHRLGLTPEATNASLLGCMEDLSVNGQRRGLREALLTRNMAAGCRLEEEEYEDDAYGHYEAFSTLAPEAWPAMELPEPCVPEPGLPPVFANFTQLLTISPLVVAEGGTAWLEWRHVQPTLDLMEAELRKSQVLFSVTRGARHGELELDIPGAQARKMFTLLDVVNRKARFIHDGSEDTSDQLVLEVSVTARVPMPSCLRRGQTYLLPIQVNPVNDPPHIIFPHGSLMVILEHTQKPLGPEVFQAYDPDSACEGLTFQVLGTSSGLPVERRDQPGEPATEFSCRELEAGSLVYVHRGGPAQDLTFRVSDGLQASPPATLKVVAIRPAIQIHRSTGLRLAQGSAMPILPANLSVETNAVGQDVSVLFRVTGALQFGELQKQGAGGVEGAEWWATQAFHQRDVEQGRVRYLSTDPQHHAYDTVENLALEVQ", "values": [{"measurement": "binding result", "result": "binds"}]}, {"binder": "Repeat1-Fc (CSPG4 Repeat1, residues 410–551, fused to the N-terminus of human IgG1 Fc) (Fc fusion, also called CSPG4 decoy; source: FreeStyle HEK 293 cells, secreted, purified (Ni-NTA); not shown: Fc (human IgG1), C-terminal, kept) ELPEPCVPEPGLPPVFANFTQLLTISPLVVAEGGTAWLEWRHVQPTLDLMEAELRKSQVLFSVTRGARHGELELDIPGAQARKMFTLLDVVNRKARFIHDGSEDTSDQLVLEVSVTARVPMPSCLRRGQTYLLPIQVNPVND", "values": [{"measurement": "Kd", "result": "~15.2", "unit": "nM"}, {"measurement": "koff", "result": "~0.000108", "unit": "s⁻¹"}, {"measurement": "kon", "result": "~7060", "unit": "M⁻¹ s⁻¹"}]}, {"binder": "His-tagged CSPG4 Repeat1 (residues 410–551), biotinylated (domain or fragment, biotinylated using EZ-Link NHS-PEG4-Biotin at pH 6.5, also called His-tagged Repeat1; source: FreeStyle HEK 293 cells, secreted, purified (Ni-NTA); not shown: 8xHis, N-terminal, kept) ELPEPCVPEPGLPPVFANFTQLLTISPLVVAEGGTAWLEWRHVQPTLDLMEAELRKSQVLFSVTRGARHGELELDIPGAQARKMFTLLDVVNRKARFIHDGSEDTSDQLVLEVSVTARVPMPSCLRRGQTYLLPIQVNPVND", "values": [{"measurement": "binding result", "result": "binds"}]}]}
